Laboratory results reported in patent publication US7459543B2, “Modulators of antiestrogen pharmacology” (priority 2000, dated 2008).

T1: estrogen receptor α (ERα) (Homo sapiens, UniProt P03372)
T1 construct: made in house
T1 sequence (P03372 1-595): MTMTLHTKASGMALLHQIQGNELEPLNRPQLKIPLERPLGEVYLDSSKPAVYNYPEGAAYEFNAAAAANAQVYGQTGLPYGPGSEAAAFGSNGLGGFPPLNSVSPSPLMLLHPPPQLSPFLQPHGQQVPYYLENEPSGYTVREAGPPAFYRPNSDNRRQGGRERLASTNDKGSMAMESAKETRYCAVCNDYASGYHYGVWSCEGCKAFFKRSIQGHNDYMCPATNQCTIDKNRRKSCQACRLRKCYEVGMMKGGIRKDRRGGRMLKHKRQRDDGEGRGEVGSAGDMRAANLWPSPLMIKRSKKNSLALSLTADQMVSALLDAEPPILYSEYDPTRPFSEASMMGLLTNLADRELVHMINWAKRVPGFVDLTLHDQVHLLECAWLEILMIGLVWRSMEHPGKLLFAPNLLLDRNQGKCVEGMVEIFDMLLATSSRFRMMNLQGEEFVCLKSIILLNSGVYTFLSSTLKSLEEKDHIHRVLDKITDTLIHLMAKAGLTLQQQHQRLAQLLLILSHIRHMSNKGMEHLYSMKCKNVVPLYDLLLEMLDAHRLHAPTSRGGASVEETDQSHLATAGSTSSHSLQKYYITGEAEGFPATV

T2: Progesterone Receptor β (PRβ) (Homo sapiens, UniProt P06401)
T2 sequence (P06401 1-933): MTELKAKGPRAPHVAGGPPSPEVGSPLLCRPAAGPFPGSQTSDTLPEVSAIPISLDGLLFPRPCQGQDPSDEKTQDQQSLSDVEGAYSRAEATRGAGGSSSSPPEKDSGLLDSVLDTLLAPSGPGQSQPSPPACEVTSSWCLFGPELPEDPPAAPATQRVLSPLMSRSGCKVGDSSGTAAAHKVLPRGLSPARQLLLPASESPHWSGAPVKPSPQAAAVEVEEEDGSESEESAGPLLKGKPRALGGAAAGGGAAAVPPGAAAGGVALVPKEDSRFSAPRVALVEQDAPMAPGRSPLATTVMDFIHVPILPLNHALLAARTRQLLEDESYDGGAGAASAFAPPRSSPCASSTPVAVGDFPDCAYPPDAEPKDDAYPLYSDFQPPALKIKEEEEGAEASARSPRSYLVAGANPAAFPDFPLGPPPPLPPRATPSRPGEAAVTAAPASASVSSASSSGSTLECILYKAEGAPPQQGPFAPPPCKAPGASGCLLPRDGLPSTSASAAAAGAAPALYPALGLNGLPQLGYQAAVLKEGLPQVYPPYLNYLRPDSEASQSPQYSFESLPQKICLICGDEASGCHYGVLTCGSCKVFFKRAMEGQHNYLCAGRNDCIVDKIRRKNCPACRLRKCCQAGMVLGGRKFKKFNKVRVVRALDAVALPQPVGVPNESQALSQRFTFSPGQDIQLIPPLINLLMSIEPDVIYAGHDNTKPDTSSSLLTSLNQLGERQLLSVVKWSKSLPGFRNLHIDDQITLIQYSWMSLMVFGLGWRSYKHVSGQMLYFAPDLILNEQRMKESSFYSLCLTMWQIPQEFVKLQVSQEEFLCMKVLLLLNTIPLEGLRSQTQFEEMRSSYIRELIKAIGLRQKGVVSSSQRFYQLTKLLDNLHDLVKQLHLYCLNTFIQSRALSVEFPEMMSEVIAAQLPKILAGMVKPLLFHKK


Experiments:
[1] = system: ERCoA3; experiment: Northern hybridization for ERCoA3 expression in MCF-7 cells; assay type: cell-based, human; details: 10^-8 M, 24 h
Protocol: FIG. 8. ERCoA3 is expressed in cells that respond to tamoxifen as an agonist. (A) Total RNA was isolated from untreated parental MCF-7 cells (−), and cells treated for 24 h with 10^−8 M estradiol (E2) or 10^−8 M trans-hydroxytamoxifen (TOT), and tamoxifen resistant cells (TOT^R). (B) Total RNA was collected from untreated Hec cells and cells treated for 24 h with 10^−8 M estradiol (E2) or 10^−8 M trans-hydroxytamoxifen. Equal amounts (20 μg) of total RNA were separated by electrophoresis. Blots were probed with the random primer labeled ERCoA3 cDNA and 36B4 cDNA (to control for RNA loading).
It was determined whether there was increased expression of ERCoA3 in cells that were resistant to SERMs, specifically TOT. RNA was isolated from MCF-7 cells and also from tamoxifen-resistant (TOT^R) MCF-7 cells. Northern hybridization was performed using an ERCoA3 probe. These experiments indicated increased expression of ERCoA3 in TOT^R MCF-7 cells when compared to parental MCF-7 cells (FIG. 8A). […] Expression of ERCoA3 was also examined in another human cell line, human endometrium cancer cell line, HEC-1B.

[2] = system: ERα; experiment: (ERE)2-TATA-CAT reporter assay in CHO cells transfected with ERα; assay type: cell-based; details: CHO cells cotransfected with ERCoA3 expression vector vs cmv5 control; estrogen, TOT or ICI, 24 h
Protocol: FIG. 5. ERCoA3 enhances partial agonist activity of antiestrogens. CHO cells were transfected with expression vectors for ERα and reporter construct (ERE)2-TATA-CAT. The cells were cotransfected with cmv5 control expression vector or expression vector for ERCoA3, as indicated. The cells were also transfected with a β-galactosidase internal control reporter to correct for transfection efficiency. Cells were then treated for 24 h with control vehicle or increasing concentrations of estradiol (E2), trans-hydroxytamoxifen (TOT) or ICI 182,780, as indicated. Values are the means ± S.E. from three separate experiments.
The ability of ERCoA3 to affect the response that a ligand has on ER was then tested. CHO cells were transfected with a CAT reporter construct wherein transcription of the CAT gene was regulated by a estrogen-responsive element, or with both a CAT reporter construct and an expression vector for ERCoA3. The cells were grown in either estrogen, TOT or ICI, and CAT activity was assayed.

[3] = system: ERα transcriptional activity; experiment: (ERE)2-PS2-CAT reporter assay in MCF-7 cells; assay type: cell-based, human; details: MCF-7 cells cotransfected with ERCoA3 vs cmv5 control; 10^-8 M E2 plus increasing TOT or ICI, 24 h
Protocol: FIG. 6. ERCoA3 attenuates the antiestrogenic effects of TOT and ICI on ERα transcriptional activity. MCF-7 cells were transfected with (ERE)2-PS2-CAT reporter construct. The cells were cotransfected with cmv5 control expression vector or expression vector for ERCoA3, as indicated. The cells were also transfected with a β-galactosidase internal control reporter to correct for transfection efficiency. Cells were then treated for 24 h with 10^−8 M estradiol (E2) and increasing concentration of trans-hydroxytamoxifen (TOT; panel A) or ICI 182,780 (ICI; panel B). Values are the means ±S.E. from three separate experiments.
Another very similar study examined the effect of ERCoA3 on the ability of TOT (FIG. 6A) and ICI (FIG. 6B) to block activation of ER. MCF-7 cells were transfected with a CAT reporter construct wherein transcription of the CAT gene was regulated by a estrogen-responsive element, or with both a CAT reporter construct and an expression vector for ERCoA3. The cells were then grown in TOT or ICI and CAT activity was assayed.

[4] = biological target: T1, estrogen receptor α (ERα); experiment: GST-ERCoA3 protein-protein interaction (pull-down) assay with [35S]-ERα; assay type: binding; details: vehicle, 10^-6 M E2, TOT or ICI
Protocol: (§1) FIG. 4. ERCoA3 preferentially interacts with antagonist-bound ERα and PRβ. In vitro translated and [^35S]-methionine-labeled (A) Estrogen Receptor α (ERα) or (B) Progesterone Receptor β (PRβ) were incubated with GST alone or GST-ERCoA3 bound to Sepharose in the presence of vehicle, 10^−6 M Estradiol (E2), 10^−6 M trans-hydroxytamoxifen (TOT), 10^−6 M ICI 182,780 (ICI), 10^−6 M R5020, or 10^−6 M RU-486 as indicated. Bound protein was eluted with excess glutathione and analyzed by 12.5% SDS-polyacrylamide gel electrophoresis. The autoradiograph is representative of 3 separate experiments. Abbreviations: E2, 17-β estradiol; TOT, transhydroxytamoxifen; ICI, ICI182,780 (a pure ER antagonist); R5020, a synthetic PR agonist, and RU-486, a partial agonist of PRβ.
A protein-protein interaction assay was used in which the affinity matrix (i.e., bound to a column) was a glutathione-S-transferase (GST) fusion protein wherein GST was fused to ERCoA3. In vitro transcribed and translated [^35S]-ERα was retained by the GST-ERCoA3 affinity column preferentially in the presence of antiestrogens, trans-hydroxytamoxifen (TOT) and ICI182,780 (ICI) when compared to estradiol (E2) (FIG. 4A). ERα was not retained on the GST protein column without ERCoA3 (or GST alone).

[5] = biological target: T2, Progesterone Receptor β (PRβ); experiment: MMTV-CAT reporter assay in CHO cells transfected with PRβ; assay type: cell-based; design: expressed in transfected cells; host or cells: CHO cells; details: CHO cells cotransfected with ERCoA3 vs cmv5 control; unliganded, 10^-8 M R5020 or RU-486, 24 h
Protocol: FIG. 7. ERCoA3 enhances partial agonist activity of RU-486. CHO cells were transfected with expression vectors for Progesterone Receptor β (PRβ) or reporter construct MMTV-CAT. The cells were cotransfected with cmv5 control expression vector or expression vector for ERCoA3 as indicated. The cells were also transfected with a β-galactosidase internal control reporter to correct for transfection efficiency. Cells were then treated for 24 h with 10^−8 M R5020 or RU-486. Values are the means ±S.E. from three separate experiments.
(§2) Somewhat different findings were made with Progesterone Receptor β (PRβ).

[6] = biological target: T2, Progesterone Receptor β (PRβ); experiment: GST-ERCoA3 protein-protein interaction (pull-down) assay with [35S]-PRβ; assay type: binding; details: vehicle, 10^-6 M R5020 or RU-486
Protocol: as §1, §2

Molecule	ERCoA3 expression (Northern) [1]	CAT activity (activation of ER) [2]	activation of ER (CAT activity) in presence of TOT or ICI [3]	retention of [35S]-ERα on GST-ERCoA3 affinity column [4]	PRβ transcriptional activity [5]	interaction of ERCoA3 with PRβ [6]
C[C@]12CC[C@@H]3c4ccc(O)cc4CC[C@H]3[C@@H]1CC[C@@H]2O [E2, 17-β-estradiol]	Neither E2 nor TOT affected ERCoA3 expression					
trans-hydroxytamoxifen [TOT]	Neither E2 nor TOT affected ERCoA3 expression					
ERCoA3: 79 amino acid ER coactivator protein (SEQ. ID. NO. 2); used as GST fusion or expressed from vector (protein, listed as Homo sapiens) MCGRPRRVSAGCGFADAHWTGLWTGLGEGQEGGIGPEGQASPTPDCASRWPRSASRWPWSAGLTVRDRPQLGELCMGRG		increased CAT activity	increases activation of ER	binds ER but binds ER better if ER are already bound to a partial agonist or antagonist	enhanced the activity of both unliganded and RU-486-bound PRβ	interacted with both unliganded and antiprogestin- (RU-486, a partial agonist) bound PRβ
